Data from article PMC8750366, “Role of the Redox State of Human Peroxiredoxin-5 on Its TLR4-Activating DAMP Function” (Antioxidants, 2021).
“And” between values parts separate entries of the source, which are not always exact repeats. Equal entries are not always repeated. Each block holds one molecule with its values, some of them ahead of it.

What was measured:
[1] = target: TLR4-YFP stably expressed on HEK293 MD2-CD14 cells (UniProt O00206)
[2] = target: TLR4-YFP stably expressed on HEK293 MD2-CD14 cells (UniProt O00206); test: flow cytometry on cells; living HEK293 MD2-CD14 TLR4 cells exposed to 1 µM of the PRDX5 redox forms or increasing dsPRDX5 in DMEM, 40 min on ice; detected with anti-PRDX5 serum and Alexa Fluor 647 Plus secondary antibody; MFI of untreated cells subtracted
[3] = target: recombinant human TLR4 (R&D Systems) (human) (UniProt O00206); test: AFM single-molecule force spectroscopy; PRDX5 grafted on the AFM tip by a PEG24 linker, TLR4 covalently attached to an alkanethiol SAM on gold (NHS/EDC); PBS, ~25 °C; retraction speeds 100 nm/s to 10 µm/s; Bell-Evans fit
[4] = target: C47S mutant N-terminal 6xHis-tagged human peroxiredoxin-5 (human); test: SEC-MALS; 50 µL loaded on Superdex 200 Increase 10/300 GL (and Superdex 75 Increase, data not shown), PBS running buffer pH 7.4; Zimm fit
[5] = target: the molecule itself; test: as above
[6] = target: TLR4-YFP stably expressed on HEK293 MD2-CD14 cells (UniProt O00206 24-839); test: cell-based or functional assay
TLR4-YFP stably expressed on HEK293 MD2-CD14 cells (UniProt O00206 24-839), sequence (O00206 24-839): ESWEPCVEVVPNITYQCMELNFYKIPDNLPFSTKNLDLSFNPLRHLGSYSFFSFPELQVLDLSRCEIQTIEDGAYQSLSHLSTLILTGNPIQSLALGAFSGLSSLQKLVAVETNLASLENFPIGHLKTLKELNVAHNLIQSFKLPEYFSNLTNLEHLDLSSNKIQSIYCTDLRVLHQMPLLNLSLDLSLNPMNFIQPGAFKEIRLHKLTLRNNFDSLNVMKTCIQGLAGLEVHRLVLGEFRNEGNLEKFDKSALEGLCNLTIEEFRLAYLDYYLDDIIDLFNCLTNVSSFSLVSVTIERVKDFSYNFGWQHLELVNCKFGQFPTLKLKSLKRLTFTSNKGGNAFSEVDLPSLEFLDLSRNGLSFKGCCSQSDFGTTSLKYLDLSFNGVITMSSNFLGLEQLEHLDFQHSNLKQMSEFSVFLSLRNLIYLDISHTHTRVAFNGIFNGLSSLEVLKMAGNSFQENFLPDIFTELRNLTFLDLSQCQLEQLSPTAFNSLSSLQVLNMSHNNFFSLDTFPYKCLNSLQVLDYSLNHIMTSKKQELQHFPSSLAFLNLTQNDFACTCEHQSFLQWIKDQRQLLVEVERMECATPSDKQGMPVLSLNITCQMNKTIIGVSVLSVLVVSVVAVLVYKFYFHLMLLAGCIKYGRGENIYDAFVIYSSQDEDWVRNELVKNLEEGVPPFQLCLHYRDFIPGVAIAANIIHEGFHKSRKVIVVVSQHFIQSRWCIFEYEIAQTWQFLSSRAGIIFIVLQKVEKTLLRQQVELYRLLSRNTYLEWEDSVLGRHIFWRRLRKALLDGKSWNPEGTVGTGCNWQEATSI

recombinant human TLR4 (R&D Systems) (human), sequence (O00206 24-631): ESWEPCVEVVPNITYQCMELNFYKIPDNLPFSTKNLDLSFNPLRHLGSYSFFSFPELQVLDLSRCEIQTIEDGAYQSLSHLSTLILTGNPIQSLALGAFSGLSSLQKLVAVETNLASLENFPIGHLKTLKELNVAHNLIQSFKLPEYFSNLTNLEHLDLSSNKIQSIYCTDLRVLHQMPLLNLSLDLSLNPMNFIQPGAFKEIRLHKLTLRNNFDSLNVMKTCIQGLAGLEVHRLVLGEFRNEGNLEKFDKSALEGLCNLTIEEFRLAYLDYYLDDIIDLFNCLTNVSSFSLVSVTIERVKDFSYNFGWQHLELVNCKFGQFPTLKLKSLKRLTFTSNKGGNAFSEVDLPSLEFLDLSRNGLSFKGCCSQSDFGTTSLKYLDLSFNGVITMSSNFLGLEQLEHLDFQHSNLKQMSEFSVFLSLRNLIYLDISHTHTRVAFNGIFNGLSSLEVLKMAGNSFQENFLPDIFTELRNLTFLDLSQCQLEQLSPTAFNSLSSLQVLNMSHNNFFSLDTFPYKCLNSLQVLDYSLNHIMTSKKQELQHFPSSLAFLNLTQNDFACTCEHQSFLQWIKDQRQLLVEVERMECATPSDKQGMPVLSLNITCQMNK
TLR4-YFP stably expressed on HEK293 MD2-CD14 cells (UniProt O00206), sequence (O00206 24-839): as the sequence (O00206 24-839) above

koff [3]: 1.02 s⁻¹
Molecule: recombinant wild-type N-terminal 6xHis-tagged human peroxiredoxin-5, disulfide (oxidized) form (from UniProt P30044 54-214)

IL-8 secretion from HEK293 MD2-CD14 TLR4 cells, 2 µM protein, 16 h, ELISA [6]: 4610 pg/mL
B3: recombinant wild-type N-terminal 6xHis-tagged human peroxiredoxin-5, disulfide (oxidized) form (enzyme)
chain: APIKVGDAIPAVEVFEGEPGNKVNLAELFKGKKGVLFGVPGAFTPGCSKTHLPGFVEQAEALKAKGVQVVACLSVNDAFVTGEWGRAHKAEGKVRLLADPTGAFGKETDLLLDDSLVSIFGNRRLKRFSMVVQDGIVKALNVEPDGTGLTCSLAPNIISQL
modifications: disulfide bridge between C47 and C151
notes: human peroxiredoxin-5 (PRDX5), wild type; calculated mass with reduced thiols 18,297.81 Da; Mainly a dimer by SEC-MALS, with ~30% monomers; also called dsPRDX5; PRDX5; source: E. coli M15 (pRep4), pQE-30, purified (Ni-NTA), dialyzed against PBS; not shown: His6, N-terminal, kept
stoichiometry N [5]: 2

Second part, the molecule before the results:

Molecule: C47S mutant N-terminal 6xHis-tagged human peroxiredoxin-5 (enzyme)
IL-8 secretion from HEK293 MD2-CD14 TLR4 cells, 2 µM protein, 16 h, ELISA [1]: 893 pg/mL | fold decrease in binding propensity compared to dsPRDX5 [2]: 3 fold | koff [3]: 1.97 s⁻¹ | stoichiometry N [4]: 2 and 4

B1: chemically reduced and alkylated recombinant human peroxiredoxin-5 (enzyme)
chain: B3 chain
modifications: cysteine thiols alkylated with iodoacetamide (carbamidomethyl groups), more likely on the two Cys involved in the disulfide bond (C47, C151)
notes: human peroxiredoxin-5 (PRDX5), wild type, same construct as m1; Made from m1 by chemical treatment; Mainly a dimer by SEC-MALS; also called r/aPRDX5; reduced PRDX5; source: dsPRDX5 (E. coli M15, purified) treated with 10 mM DTT, then 55 mM iodoacetamide, ultra-filtered; not shown: His6, N-terminal, kept
stoichiometry N [5]: 2 | koff [3]: 2.47 s⁻¹ | IL-8 secretion from HEK293 MD2-CD14 TLR4 cells, 2 µM protein, 16 h, ELISA [6]: 2440 pg/mL

B2: hyperoxidized recombinant human peroxiredoxin-5 (enzyme)
chain: B3 chain
modifications: Cys sulfinic (-SO2H) and/or sulfonic (-SO3H) acids; only partially hyperoxidized (~42% of species), a proportion of species keeps the disulfide bridge
notes: human peroxiredoxin-5 (PRDX5), wild type, same construct as m1; Made from m1 by chemical treatment; a mix of species; Mainly a dimer by SEC-MALS; also called s/sPRDX5; hyperoxidized PRDX5; source: dsPRDX5 (E. coli M15, purified) treated with 10 mM DTT, then 5 mM H2O2, ultra-filtered; not shown: His6, N-terminal, kept
stoichiometry N [5]: 2 and 4 | IL-8 secretion from HEK293 MD2-CD14 TLR4 cells, 2 µM protein, 16 h, ELISA [6]: 1450 pg/mL
